Data from paper PMC5118228 (EJNMMI Research, 2016).

Assay: in vivo
Details: male, athymic nu/nu, mouse, iv, total radioactivity
[1] = 0.03 nmol, uptake in Red blood cell
[2] = 0.1 nmol, uptake in Red blood cell
[3] = 0.3 nmol, uptake in Red blood cell
[4] = 1 nmol, uptake in Red blood cell
[5] = 3 nmol, uptake in Red blood cell

Which results are given for `C[C@@H](O)[C@H](NC(=O)[C@@H]1CSSC[C@H](NC(=O)[C@@H](Cc2ccccc2)NC(=O)CN2CCN(CC(=O)O)CCN(CC(=O)O)CCN(CC(=O)O)CC2)C(=O)N[C@@H](Cc2ccc(O)cc2)C(=O)N[C@H](Cc2c[nH]c3ccccc23)C(=O)N[C@@H](CCCCN)C(=O)N[C@@H]([C@@H](C)O)C(=O)N1)C(=O)O` [^111In-DOTATATE, metal not drawn]?
tissue uptake at 10 min (0.03 nmol, uptake in Adrenals): 3.4 ± 2.3 %ID/g; tissue uptake at 0.5 h (0.03 nmol, uptake in Adrenals): 4.7 ± 4.4 %ID/g; tissue uptake at 1 h (0.03 nmol, uptake in Adrenals): 4.6 ± 5.6 %ID/g; tissue uptake at 0.05 h (0.03 nmol, uptake in Kidney): 19.2 ± 8.4 %ID/g; tissue uptake at 10 min (0.03 nmol, uptake in Kidney): 16 ± 4.1 %ID/g; tissue uptake at 0.5 h (0.03 nmol, uptake in Kidney): 14 ± 4.1 %ID/g; tissue uptake at 1 h (0.03 nmol, uptake in Kidney): 12.3 ± 3.7 %ID/g; tissue uptake at 0.05 h (0.03 nmol, uptake in Muscles): 1.2 ± 0.7 %ID/g; tissue uptake at 10 min (0.03 nmol, uptake in Muscles): 0.9 ± 0.3 %ID/g; tissue uptake at 0.5 h (0.03 nmol, uptake in Muscles): 0.3 ± 0.1 %ID/g; tissue uptake at 1 h (0.03 nmol, uptake in Muscles): 0.07 %ID/g; tissue uptake at 0.05 h (0.03 nmol, uptake in Pancreas): 6 ± 1.5 %ID/g; tissue uptake at 10 min (0.03 nmol, uptake in Pancreas): 1.6 ± 1.4 %ID/g; tissue uptake at 0.5 h (0.03 nmol, uptake in Pancreas): 4.7 ± 2.7 %ID/g; tissue uptake at 1 h (0.03 nmol, uptake in Pancreas): 9.2 ± 1.9 %ID/g; tissue uptake at 0.05 h (0.03 nmol, uptake in Pituitary): 1 ± 1.7 %ID/g; tissue uptake at 10 min (0.03 nmol, uptake in Pituitary): 0.2 ± 0.2 %ID/g; tissue uptake at 0.5 h (0.03 nmol, uptake in Pituitary): 0.5 ± 0.8 %ID/g; tissue uptake at 1 h (0.03 nmol, uptake in Pituitary): < 0.05 %ID/g; tissue uptake at 0.05 h (0.03 nmol, uptake in Plasma): 13.3 ± 1.6 %ID/g; tissue uptake at 0.5 h (0.03 nmol, uptake in Plasma): 3.2 ± 1 %ID/g; tissue uptake at 1 h (0.03 nmol, uptake in Plasma): 0.8 ± 0.1 %ID/g; tissue uptake at 0.05 h [1]: 3.5 ± 2.5 %ID/g; tissue uptake at 0.5 h [1]: 0.6 ± 0.2 %ID/g; tissue uptake at 1 h [1]: 0.3 ± 0.08 %ID/g; tissue uptake at 0.05 h (0.03 nmol, uptake in Stomach): 5.6 ± 0.7 %ID/g; tissue uptake at 10 min (0.03 nmol, uptake in Stomach): 7.9 ± 2.2 %ID/g; tissue uptake at 0.5 h (0.03 nmol, uptake in Stomach): 8.1 ± 1.3 %ID/g; tissue uptake at 1 h (0.03 nmol, uptake in Stomach): 7.6 ± 1.1 %ID/g; tissue uptake at 0.05 h (0.03 nmol, uptake in Tumor): 6.9 ± 3.6 %ID/g; tissue uptake at 10 min (0.03 nmol, uptake in Tumor): 10.7 ± 2.5 %ID/g; tissue uptake at 0.5 h (0.03 nmol, uptake in Tumor): 15.1 ± 7.5 %ID/g; tissue uptake at 1 h (0.03 nmol, uptake in Tumor): 12.8 ± 6.7 %ID/g; tissue uptake at 1 h (0.1 nmol, uptake in Adrenals): 1.3 ± 0.2 %ID/g; tissue uptake at 0.05 h (0.1 nmol, uptake in Kidney): 21.6 ± 3.9 %ID/g; tissue uptake at 10 min (0.1 nmol, uptake in Kidney): 15.6 ± 3.1 %ID/g; tissue uptake at 0.5 h (0.1 nmol, uptake in Kidney): 16.1 ± 5.5 %ID/g; tissue uptake at 1 h (0.1 nmol, uptake in Kidney): 16.7 ± 8.6 %ID/g; tissue uptake at 0.05 h (0.1 nmol, uptake in Muscles): 1.5 ± 0.6 %ID/g; tissue uptake at 10 min (0.1 nmol, uptake in Muscles): 0.7 ± 0.2 %ID/g; tissue uptake at 0.5 h (0.1 nmol, uptake in Muscles): 0.4 ± 0.4 %ID/g; tissue uptake at 1 h (0.1 nmol, uptake in Muscles): 0.3 ± 0.4 %ID/g; tissue uptake at 0.05 h (0.1 nmol, uptake in Pancreas): 11.9 ± 4 %ID/g; tissue uptake at 10 min (0.1 nmol, uptake in Pancreas): 9.9 ± 4.2 %ID/g; tissue uptake at 0.5 h (0.1 nmol, uptake in Pancreas): 7 ± 1.4 %ID/g; tissue uptake at 1 h (0.1 nmol, uptake in Pancreas): 4.7 ± 0.5 %ID/g; tissue uptake at 0.05 h (0.1 nmol, uptake in Pituitary): 0.3 ± 0.2 %ID/g; tissue uptake at 10 min (0.1 nmol, uptake in Pituitary): 0.2 ± 0.09 %ID/g; tissue uptake at 0.5 h (0.1 nmol, uptake in Pituitary): 0.1 ± 0.2 %ID/g; tissue uptake at 1 h (0.1 nmol, uptake in Pituitary): < 0.05 %ID/g; tissue uptake at 0.05 h (0.1 nmol, uptake in Plasma): 13.2 ± 1.7 %ID/g; tissue uptake at 10 min (0.1 nmol, uptake in Plasma): 8.6 ± 1.4 %ID/g; tissue uptake at 0.5 h (0.1 nmol, uptake in Plasma): 3.4 ± 1.7 %ID/g; tissue uptake at 1 h (0.1 nmol, uptake in Plasma): 1 ± 0.6 %ID/g; tissue uptake at 0.05 h [2]: 5.2 ± 0.7 %ID/g; tissue uptake at 0.5 h [2]: 0.8 ± 0.4 %ID/g; tissue uptake at 1 h [2]: 0.2 ± 0.1 %ID/g; tissue uptake at 0.05 h (0.1 nmol, uptake in Stomach): 4.4 ± 1.1 %ID/g; tissue uptake at 10 min (0.1 nmol, uptake in Stomach): 5.2 ± 1.1 %ID/g; tissue uptake at 0.5 h (0.1 nmol, uptake in Stomach): 6.3 ± 2 %ID/g; tissue uptake at 1 h (0.1 nmol, uptake in Stomach): 6 ± 1.8 %ID/g; tissue uptake at 10 min (0.1 nmol, uptake in Tumor): 11.8 ± 3.6 %ID/g; tissue uptake at 1 h (0.1 nmol, uptake in Tumor): 9.9 ± 2.6 %ID/g; tissue uptake at 0.05 h (0.3 nmol, uptake in Adrenals): 2.3 ± 0.6 %ID/g; tissue uptake at 10 min (0.3 nmol, uptake in Adrenals): 1.2 ± 0.4 %ID/g; tissue uptake at 0.5 h (0.3 nmol, uptake in Adrenals): 1 ± 0.1 %ID/g; tissue uptake at 1 h (0.3 nmol, uptake in Adrenals): 0.8 ± 0.3 %ID/g; tissue uptake at 0.05 h (0.3 nmol, uptake in Kidney): 17.2 ± 5.4 %ID/g; tissue uptake at 10 min (0.3 nmol, uptake in Kidney): 12.8 ± 2.2 %ID/g; tissue uptake at 0.5 h (0.3 nmol, uptake in Kidney): 16.9 ± 6.3 %ID/g; tissue uptake at 1 h (0.3 nmol, uptake in Kidney): 13.4 ± 2.8 %ID/g; tissue uptake at 0.05 h (0.3 nmol, uptake in Muscles): 1.1 ± 0.1 %ID/g; tissue uptake at 10 min (0.3 nmol, uptake in Muscles): 0.5 ± 0.1 %ID/g; tissue uptake at 0.5 h (0.3 nmol, uptake in Muscles): 0.3 ± 0.1 %ID/g; tissue uptake at 1 h (0.3 nmol, uptake in Muscles): < 0.05 %ID/g; tissue uptake at 10 min (0.3 nmol, uptake in Pancreas): 3.5 ± 0.3 %ID/g; tissue uptake at 0.5 h (0.3 nmol, uptake in Pancreas): 3.2 ± 0.4 %ID/g; tissue uptake at 1 h (0.3 nmol, uptake in Pancreas): 3 ± 1 %ID/g; tissue uptake at 0.05 h (0.3 nmol, uptake in Pituitary): 0.3 %ID/g; tissue uptake at 10 min (0.3 nmol, uptake in Pituitary): 0.2 ± 0.05 %ID/g; tissue uptake at 0.5 h (0.3 nmol, uptake in Pituitary): 0.1 %ID/g; tissue uptake at 1 h (0.3 nmol, uptake in Pituitary): < 0.05 %ID/g; tissue uptake at 0.05 h (0.3 nmol, uptake in Plasma): 13.4 ± 1.4 %ID/g; tissue uptake at 10 min (0.3 nmol, uptake in Plasma): 7.2 ± 2 %ID/g; tissue uptake at 0.5 h (0.3 nmol, uptake in Plasma): 3.4 ± 0.5 %ID/g; tissue uptake at 1 h (0.3 nmol, uptake in Plasma): 0.7 ± 0.2 %ID/g; tissue uptake at 0.05 h [3]: 2.6 ± 0.6 %ID/g; tissue uptake at 10 min [3]: 1.3 ± 0.4 %ID/g; tissue uptake at 0.5 h [3]: 0.6 ± 0.1 %ID/g; tissue uptake at 1 h [3]: < 0.05 %ID/g; tissue uptake at 10 min (0.3 nmol, uptake in Stomach): 3.9 ± 0.4 %ID/g; tissue uptake at 0.5 h (0.3 nmol, uptake in Stomach): 3.5 ± 0.2 %ID/g; tissue uptake at 1 h (0.3 nmol, uptake in Stomach): 3.4 ± 0.8 %ID/g; tissue uptake at 10 min (0.3 nmol, uptake in Tumor): 8 ± 1.2 %ID/g; tissue uptake at 0.5 h (0.3 nmol, uptake in Tumor): 9.9 ± 3 %ID/g; tissue uptake at 1 h (0.3 nmol, uptake in Tumor): 9.9 ± 0.7 %ID/g; tissue uptake at 0.5 h (1 nmol, uptake in Adrenals): 0.5 ± 0.09 %ID/g; tissue uptake at 1 h (1 nmol, uptake in Adrenals): 0.5 ± 0.05 %ID/g; tissue uptake at 0.05 h (1 nmol, uptake in Kidney): 17.5 ± 9.7 %ID/g; tissue uptake at 10 min (1 nmol, uptake in Kidney): 14.2 ± 7 %ID/g; tissue uptake at 0.5 h (1 nmol, uptake in Kidney): 6 ± 1.8 %ID/g; tissue uptake at 1 h (1 nmol, uptake in Kidney): 14.1 ± 3.4 %ID/g; tissue uptake at 0.05 h (1 nmol, uptake in Muscles): 1.2 ± 0.4 %ID/g; tissue uptake at 10 min (1 nmol, uptake in Muscles): 1 ± 0.5 %ID/g; tissue uptake at 0.5 h (1 nmol, uptake in Muscles): 0.2 ± 0.09 %ID/g; tissue uptake at 1 h (1 nmol, uptake in Muscles): < 0.05 %ID/g; tissue uptake at 0.05 h (1 nmol, uptake in Pancreas): 3.5 ± 2.4 %ID/g; tissue uptake at 0.5 h (1 nmol, uptake in Pancreas): 0.7 ± 0.2 %ID/g; tissue uptake at 1 h (1 nmol, uptake in Pancreas): 1.5 ± 0.3 %ID/g; tissue uptake at 0.05 h (1 nmol, uptake in Pituitary): 0.1 ± 0.09 %ID/g; tissue uptake at 10 min (1 nmol, uptake in Pituitary): 0.8 ± 1.4 %ID/g; tissue uptake at 0.5 h (1 nmol, uptake in Pituitary): < 0.05 %ID/g; tissue uptake at 1 h (1 nmol, uptake in Pituitary): < 0.05 %ID/g; tissue uptake at 0.05 h (1 nmol, uptake in Plasma): 11.3 ± 4.9 %ID/g; tissue uptake at 10 min (1 nmol, uptake in Plasma): 7.6 ± 3.1 %ID/g; tissue uptake at 1 h (1 nmol, uptake in Plasma): 0.6 ± 0.2 %ID/g; tissue uptake at 0.05 h [4]: 2.3 ± 0.4 %ID/g; tissue uptake at 10 min [4]: 1.3 ± 0.5 %ID/g; tissue uptake at 0.5 h [4]: 0.3 ± 0.1 %ID/g; tissue uptake at 1 h [4]: 0.4 ± 0.1 %ID/g; tissue uptake at 0.05 h (1 nmol, uptake in Stomach): 2.4 ± 1.1 %ID/g; tissue uptake at 0.5 h (1 nmol, uptake in Stomach): 0.8 ± 0.2 %ID/g; tissue uptake at 0.05 h (1 nmol, uptake in Tumor): 5.6 ± 2 %ID/g; tissue uptake at 10 min (1 nmol, uptake in Tumor): 6.7 ± 2.9 %ID/g; tissue uptake at 0.5 h (1 nmol, uptake in Tumor): 2.9 ± 0.6 %ID/g; tissue uptake at 1 h (1 nmol, uptake in Tumor): 7 ± 1.1 %ID/g; tissue uptake at 10 min (3 nmol, uptake in Adrenals): 1.1 ± 0.7 %ID/g; tissue uptake at 0.5 h (3 nmol, uptake in Adrenals): 0.6 ± 0.2 %ID/g; tissue uptake at 1 h (3 nmol, uptake in Adrenals): 0.3 ± 0.06 %ID/g; tissue uptake at 0.05 h (3 nmol, uptake in Kidney): 19.1 ± 3.1 %ID/g; tissue uptake at 10 min (3 nmol, uptake in Kidney): 14.6 ± 2.9 %ID/g; tissue uptake at 0.5 h (3 nmol, uptake in Kidney): 14.5 ± 1.1 %ID/g; tissue uptake at 1 h (3 nmol, uptake in Kidney): 14.7 ± 2.1 %ID/g; tissue uptake at 0.05 h (3 nmol, uptake in Muscles): 1.3 ± 0.3 %ID/g; tissue uptake at 10 min (3 nmol, uptake in Muscles): 0.8 ± 0.3 %ID/g; tissue uptake at 0.5 h (3 nmol, uptake in Muscles): 0.3 ± 0.1 %ID/g; tissue uptake at 1 h (3 nmol, uptake in Muscles): < 0.05 %ID/g; tissue uptake at 0.05 h (3 nmol, uptake in Pancreas): 2.2 ± 0.4 %ID/g; tissue uptake at 10 min (3 nmol, uptake in Pancreas): 1.6 ± 0.2 %ID/g; tissue uptake at 0.5 h (3 nmol, uptake in Pancreas): 1 ± 0.2 %ID/g; tissue uptake at 1 h (3 nmol, uptake in Pancreas): 0.8 ± 1 %ID/g; tissue uptake at 0.05 h (3 nmol, uptake in Pituitary): 0.2 ± 0.06 %ID/g; tissue uptake at 10 min (3 nmol, uptake in Pituitary): 0.1 ± 0.06 %ID/g; tissue uptake at 0.5 h (3 nmol, uptake in Pituitary): 0.08 ± 0.06 %ID/g; tissue uptake at 1 h (3 nmol, uptake in Pituitary): < 0.05 %ID/g; tissue uptake at 0.05 h (3 nmol, uptake in Plasma): 13.8 ± 1.7 %ID/g; tissue uptake at 10 min (3 nmol, uptake in Plasma): 8.4 ± 0.9 %ID/g; tissue uptake at 1 h (3 nmol, uptake in Plasma): 0.6 ± 0.2 %ID/g; tissue uptake at 10 min [5]: 2.4 ± 0.3 %ID/g; tissue uptake at 0.5 h [5]: 0.6 ± 0.2 %ID/g; tissue uptake at 1 h [5]: < 0.05 %ID/g; tissue uptake at 0.05 h (3 nmol, uptake in Stomach): 3.2 ± 0.5 %ID/g; tissue uptake at 10 min (3 nmol, uptake in Stomach): 2.3 ± 0.2 %ID/g; tissue uptake at 0.5 h (3 nmol, uptake in Stomach): 1.5 ± 0.6 %ID/g; tissue uptake at 1 h (3 nmol, uptake in Stomach): 1.6 ± 0.7 %ID/g; tissue uptake at 0.05 h (3 nmol, uptake in Tumor): 2.9 ± 1.1 %ID/g
